The source of these data is patent US20240124585A1 (SUTRO BIOPHARMA, published 2024).

For assay [1], the target named is T1, human CD3 on T-cell lines (CD3-expressing Jurkat cells; HUT78 cells) (human, UniProt P07766 23-207).
T1 construct: On cells it stands in the CD3/TCR complex
Description: flow cytometry, HUT78 cells.

The target in assay [2] is T2, human CD3 epsilon (Acro Cat #CDE-H5223) (human, UniProt P07766 23-126).
T2 construct: Bought recombinant protein; also called rhCD3E
Description: SPR (Biacore), antibody captured, human CD3 epsilon analyte. How it is done: (§1) Anti-Fab or anti-Fc polyclonal antibodies were immobilized onto a CM5 chip (GE Life Sciences) using amine coupling chemistry (from Amine Coupling Kit, GE Life Sciences). The immobilization steps were carried out at a flow rate of 25 μl/min in 1×HBS-EP+ buffer (GE Life Sciences; 10× Stock diluted before use). The sensor surfaces were activated for 7 min with a mixture of NHS (0.05 M) and EDC (0.2 M). The Anti-Fab or Anti-Fc antibodies were injected over all 4 flow cells at a concentration of 25 μg/mL in 10 mM sodium acetate, pH 4.5, for 7 min. Ethanolamine (1 M, pH 8.5) was injected for 7 min to block any remaining activated groups.
(§2) Off-rate and kinetic binding experiments were performed at 25° C. using 1×HBS-EP+ buffer. Test and control antibodies were injected over the anti-Fab or anti-Fc surface at concentrations of 5-10 μg/mL for 12 seconds at a flow rate of 10 μL/min on flow cells 2, 3 and 4, followed by a buffer wash for 30 seconds at the same flow rate. […] After capturing ligand (antibody) on the anti-Fc or anti-Fab surface, the analyte (human CD3 epsilon, Acro Cat #CDE-H5223) was bound for 180 seconds, followed by a 600 second dissociation phase at a flow rate of 50 μL/min. Between each ligand capture and analyte binding cycle, regeneration was carried out using two injections of 10 mM Glycine pH 2.0 for 30 seconds at 30 μL/min, followed by a 30 second buffer wash step.
(§3) The data was fit with the Biacore T200 Evaluation software, using a 1-1 Langmuir binding model. KD (affinity, nM) was determined as a ratio of the kinetic rate constants calculated from the fits of the association and dissociation phases.

Assay [3] deals with T2, human CD3 epsilon (Acro Cat #CDE-H5223). Described as above. How it is done: as §1, §2, §3
This is another data set of the same source.

Assay [4] concerns the target T1, human CD3 on T-cell lines …. Kind of assay: flow cytometry, HUT78 cells. This is another data set of the same source. (Flow cytometry measures light scatter and fluorescence of single cells or particles in a stream.)

Changes are numbered by the printed parent chain. Names may count otherwise. Read-outs that look alike come from different tables or passages of the source.

T1 sequence (P07766 23-207 limits assumed): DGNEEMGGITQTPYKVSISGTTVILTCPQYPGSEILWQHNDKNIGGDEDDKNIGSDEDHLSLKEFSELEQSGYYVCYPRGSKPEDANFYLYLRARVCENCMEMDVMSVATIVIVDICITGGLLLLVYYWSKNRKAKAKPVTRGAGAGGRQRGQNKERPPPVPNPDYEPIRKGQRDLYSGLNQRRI
T2 sequence (P07766 23-126 limits assumed): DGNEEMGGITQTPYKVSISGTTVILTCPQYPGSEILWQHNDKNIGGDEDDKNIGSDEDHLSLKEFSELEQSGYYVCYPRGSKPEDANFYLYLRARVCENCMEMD

B1: 2037-B10_Hc-A59D (antibody, human IgG1, lambda, V domains shown)
VH: EVQLVESGGGLVKPGGSLRLSCAASGFTFNKYAMNWVRQAPGKGLEWVARIRTKYNNYDTYYADSVKDRFTISRDDSKNTAYLQMNSLKTEDTAVYYCVRHGNFGNSYISYWAYWGQGTPVTVSS
VL: QTVVTQEPSLTVSPGGTVTLTCGSSTGAVTSGYYPNWLQQKPGQAPRGLIGGTKFLAPGTPARFSGSLLGGKAALTLSGVQPEDEAEYYCALWYSNRWVFGGGTQLTVTG
notes: human IgG1, lambda; also called SRP 2037 A59D; 2037-B10_VH-A59D
By Kd is commonly meant the free concentration of one partner at which half of the binding sites on the other are occupied at equilibrium, for simple one-to-one binding. Higher therefore signals lower affinity. The koff is the rate constant with which the complex falls apart. The low end stands for a long-lived complex, the high end for a short-lived complex. The kon is the second-order rate constant of association. B1: in assay [1], the “Bmax (MFI)” value stood at 742 MFI and the Kd turned out to be 0.07 nM. In assay [2], this molecule returned a Kd of 0.476 nM, a koff of 0.000251 s⁻¹ and a kon of 527000 M⁻¹ s⁻¹.

B2: 2037-B10_Hc-R50D (antibody, human IgG1, lambda, V domains shown)
VH: B1 VH with R50D, D59A
VL: B1 VL
notes: human IgG1, lambda; also called SRP 2037 R50D; 2037-B10_VH-R50D
For B2, in assay [1], the “Bmax (MFI)” value worked out at 119 MFI and the equilibrium dissociation constant (Kd) turned out to be 6.61 nM.

B3: SRP 2037-B10 F29D/R97D (antibody, human IgG1, lambda, V domains shown)
VH: B1 VH with F29D, D59A
VL: B1 VL with R97D
notes: human IgG1, lambda
Regarding B3, in assay [3], binding was put at a Kd of 185 nM, the koff amounted to 0.000761 s⁻¹ and the on-rate constant (kon) turned out to be 4110 M⁻¹ s⁻¹.

B4: 2037-B10_Hc-K31D (antibody, human IgG1, lambda, V domains shown)
VH: B1 VH with K31D, D59A
VL: B1 VL
notes: human IgG1, lambda; also called SRP 2037 K31D; 2037-B10_VH-K31D
Consider B4, for which, in assay [1], the “Bmax (MFI)” value came to 1060 MFI and the affinity, expressed as Kd, was 0.94 nM. Moreover, in assay [2], the Kd was found to be 1.39 nM, the koff came out at 0.000377 s⁻¹ and the kon was 271000 M⁻¹ s⁻¹.

B5: 2037-B10_Hc-N56D (antibody, human IgG1, lambda, V domains shown)
VH: B1 VH with N56D, D59A
VL: B1 VL
notes: human IgG1, lambda; also called SRP 2037 N56D; 2037-B10_VH-N56D
Regarding B5, in assay [1], the “Bmax (MFI)” value came to 216 MFI and the affinity, expressed as Kd, was 27.4 nM. Moreover, in assay [2], the affinity, expressed as Kd, was 5.37 nM; the koff worked out at 0.000668 s⁻¹; the on-rate constant (kon) was determined as 124000 M⁻¹ s⁻¹.

B6: 2037-B10_Hc-A33D (antibody, human IgG1, V domains shown)
VH: B1 VH with A33D, D59A
VL: B1 VL
notes: human IgG1, lambda; also called SRP 2037 A33D; 2037-B10_VH-A33D
Consider B6, for which, in assay [1], the “Bmax (MFI)” value came to 103 MFI and the equilibrium dissociation constant (Kd) came out at 8.57 nM.

B7: 2037-B10_Hc-K54D (antibody, human IgG1, lambda, V domains shown)
VH: B1 VH with K54D, D59A
VL: B1 VL
notes: human IgG1, lambda; also called SRP 2037 K54D; 2037-B10_VH-K54D
On to B7, for which, in assay [1], the “Bmax (MFI)” value came out at 857 MFI and the Kd was 0.37 nM. In assay [2], this molecule gave a Kd of 0.856 nM, a koff of 0.000289 s⁻¹ and an on-rate (kon) of 337000 M⁻¹ s⁻¹.

B8: 2037-B10_Hc-G105D (antibody, human IgG1, lambda, V domains shown)
VH: B1 VH with D59A, G105D
VL: B1 VL
notes: human IgG1, lambda; also called SRP 2037 G105D; 2037-B10_VH-G105D
B8: in assay [1], the “Bmax (MFI)” value was found to be 1010 MFI and the Kd is 0.36 nM. In addition, in assay [2], binding was put at a Kd of 0.767 nM, the koff came to 0.000207 s⁻¹ and the on-rate constant (kon) turned out to be 270000 M⁻¹ s⁻¹.

B9: SRP 2037-B10 F104D/LC5 (antibody, human IgG1, kappa, V domains shown)
VH: B1 VH with D59A, F104D
VL: DTQVTQSPSLSASVGDRVTITCGSSTGAVTSGYYPNWLQQKPGQAPRGLIGGTKFLAPGVPSRFSGSGSGTDFTLTISSLQPEDFATYYCALWYSNRWVFGGGTKVEIKR
notes: human IgG1, kappa
For the molecule B9, in assay [4], the “HUT78 Bmax” value came to 523 and the dissociation constant Kd was 226 nM.

B10: 2037-B10_Hc-Y108D (antibody, human IgG1, lambda, V domains shown)
VH: B1 VH with D59A, Y108D
VL: B1 VL
notes: human IgG1, lambda; also called 2037-B10_VH-Y108D
As for B10, in assay [1], the “Bmax (MFI)” value is 820 MFI and the Kd was found to be 0.12 nM. In addition, in assay [2], the Kd came out at 0.239 nM, the off-rate constant (koff) is 0.00019 s⁻¹ and the kon is 796000 M⁻¹ s⁻¹.

B11: 2037-B10_Hc-R52D (antibody, human IgG1, lambda, V domains shown)
VH: B1 VH with R52D, D59A
VL: B1 VL
notes: human IgG1, lambda; also called SRP 2037 R52D; 2037-B10_VH-R52D
B11: in assay [1], the “Bmax (MFI)” value turned out to be 142 MFI and the Kd was 14.1 nM.

B12: 2037-B10_Hc-N30D (antibody, human IgG1, lambda, V domains shown)
VH: B1 VH with N30D, D59A
VL: B1 VL
notes: human IgG1, lambda; also called SRP 2037 N30D; 2037-B10_VH-N30D
Consider B12, for which, in assay [1], the “Bmax (MFI)” value was 989 MFI and the Kd worked out at 0.22 nM. Further, in assay [2], the Kd is 0.36 nM, the koff stood at 0.000189 s⁻¹ and the kon came out at 524000 M⁻¹ s⁻¹.

B13: 2037-B10_Lc-Y94D (antibody, V domains shown)
VH: not shown
VL: B1 VL with Y94D
notes: human IgG1, lambda; also called SRP 2037 Y94D; 2037-B10 VL-Y94D
As to B13, in assay [1], the “Bmax (MFI)” value worked out at 1600 MFI and the Kd is 0.7 nM.

B14: 2037-B10_Lc-S95D (antibody, V domains shown)
VH: not shown
VL: B1 VL with S95D
notes: human IgG1, lambda; also called SRP 2037 S95D; 2037-B10 VL-S95D
Turning to B14, in assay [1], the “Bmax (MFI)” value was 896 MFI and the Kd stood at 0.29 nM.

B15: SRP 2037-B10 Y55D/LC5 (antibody, human IgG1, kappa, V domains shown)
VH: B1 VH with Y55D, D59A
VL: B9 VL
notes: human IgG1, kappa
Take B15: in assay [4], the “HUT78 Bmax” value was determined as 442 and binding was put at a Kd of 174 nM.

B16: 2037-B10_Hc-N106D (antibody, human IgG1, lambda, V domains shown)
VH: B1 VH with D59A, N106D
VL: B1 VL
notes: human IgG1, lambda; also called SRP 2037 N106D; 2037-B10_VH-N106D
For B16, in assay [1], the “Bmax (MFI)” value turned out to be 1010 MFI and the affinity, expressed as Kd, was 0.26 nM. In assay [2], binding was put at a Kd of 0.841 nM, the koff came out at 0.000277 s⁻¹ and the kon is 329000 M⁻¹ s⁻¹.

B17: 2037-B10_Lc-W93D (antibody, V domains shown)
VH: not shown
VL: B1 VL with W93D
notes: human IgG1, lambda; also called SRP 2037 W93D; 2037-B10 VL-W93D
As for B17, in assay [1], the “Bmax (MFI)” value amounted to 88 MFI and binding was put at a Kd of 21.9 nM. In assay [2], this molecule returned a kon of 7720 M⁻¹ s⁻¹.

B18: 2037-B10_Hc-N103D (antibody, human IgG1, lambda, V domains shown)
VH: B1 VH with D59A, N103D
VL: B1 VL
notes: human IgG1, lambda; also called SRP 2037 N103D; 2037-B10_VH-N103D
For the molecule B18, in assay [1], the “Bmax (MFI)” value is 166 MFI and the Kd amounted to 28.6 nM. Besides, in assay [2], the Kd was 85 nM, the koff was 0.000583 s⁻¹ and the kon came to 6860 M⁻¹ s⁻¹.

B19: SRP 2037-B10 S107D/LC5 (antibody, human IgG1, kappa, V domains shown)
VH: B1 VH with D59A, S107D
VL: B9 VL
notes: human IgG1, kappa
On to B19, for which, in assay [4], the “HUT78 Bmax” value stood at 404 and binding was characterised by a dissociation constant (Kd) of 86.4 nM.

B20: 2037-B10_Lc-N96D (antibody, V domains shown)
VH: not shown
VL: B1 VL with N96D
notes: human IgG1, lambda; also called SRP 2037 N96D; 2037-B10 VL-N96D
On to B20, for which, in assay [1], the “Bmax (MFI)” value was 1220 MFI and the Kd is 0.43 nM. Moreover, in assay [2], the equilibrium dissociation constant (Kd) was determined as 0.596 nM, the koff was 0.000265 s⁻¹ and the on-rate constant (kon) was 445000 M⁻¹ s⁻¹.

B21: 2037-B10_Hc-F27D (antibody, human IgG1, lambda, V domains shown)
VH: B1 VH with F27D, D59A
VL: B1 VL
notes: human IgG1, lambda; also called SRP 2037 F27D; 2037-B10_VH-F27D
Take B21: in assay [1], the “Bmax (MFI)” value is 1360 MFI and the dissociation constant Kd came out at 1.27 nM. In assay [2], this molecule yielded a Kd of 1.07 nM, a koff of 0.000278 s⁻¹ and a kon of 259000 M⁻¹ s⁻¹.
